Publication PMC10658506

T1: human gp130-Fc, P40189
T1 chain: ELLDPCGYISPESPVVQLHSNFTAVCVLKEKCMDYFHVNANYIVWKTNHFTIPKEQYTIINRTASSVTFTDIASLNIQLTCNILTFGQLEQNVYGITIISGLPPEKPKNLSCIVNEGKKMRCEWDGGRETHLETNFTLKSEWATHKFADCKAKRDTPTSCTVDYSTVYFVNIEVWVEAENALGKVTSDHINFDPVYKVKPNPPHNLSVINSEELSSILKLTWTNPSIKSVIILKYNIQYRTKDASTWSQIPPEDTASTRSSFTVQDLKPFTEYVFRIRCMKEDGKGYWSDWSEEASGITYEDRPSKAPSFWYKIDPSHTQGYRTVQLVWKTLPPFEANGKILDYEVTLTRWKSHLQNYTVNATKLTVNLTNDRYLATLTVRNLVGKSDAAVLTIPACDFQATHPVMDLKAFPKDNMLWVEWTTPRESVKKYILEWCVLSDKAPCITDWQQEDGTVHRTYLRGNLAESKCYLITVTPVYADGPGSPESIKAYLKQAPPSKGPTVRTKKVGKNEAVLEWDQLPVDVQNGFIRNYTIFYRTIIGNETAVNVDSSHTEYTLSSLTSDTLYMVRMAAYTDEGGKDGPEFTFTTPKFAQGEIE

T2: yeast-displayed IL-11 L57P (human)
T2 sequence (P20809 22-199 with L57P, looked up): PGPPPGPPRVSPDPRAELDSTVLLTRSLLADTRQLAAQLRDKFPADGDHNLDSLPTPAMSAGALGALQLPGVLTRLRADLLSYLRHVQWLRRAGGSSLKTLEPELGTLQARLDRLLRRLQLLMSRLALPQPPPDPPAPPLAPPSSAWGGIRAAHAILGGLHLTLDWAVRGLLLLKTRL


Experiments:
human gp130-Fc, P40189 = target: T1, human gp130-Fc, P40189; experiment: flow cytometry on yeast-displayed IL-11; settings: chain shown with the change, 100 nM IL-11R added, read off a plot
[1] = target: yeast-displayed IL-11 GIPR (human); experiment: flow cytometry on cells; yeast-displayed IL-11 variants incubated with varying concentrations of soluble IL-11R or mIL-11R overnight at room temperature, washed with BPBS; receptor detected with anti-his AF647, display with anti-c-myc; apparent Kd from the fraction bound of the expressing …
[2] = target: T2, yeast-displayed IL-11 L57P (human); experiment: as above
[3] = target: yeast-displayed IL-11 GIPR S60T (human); experiment: as above

| Binder | response (Normalized Fluorescence) (human gp130-Fc, P40189; 10 nM gp130-Fc) | response (Normalized Fluorescence) (human gp130-Fc, P40189; 100 nM gp130-Fc) | response (Normalized Fluorescence) (human gp130-Fc, P40189; 1000 nM gp130-Fc) | Kd [1] [nM] | fold improvement of apparent Kd over WT IL-11 [1] [fold] | Kd [2] [nM] | fold improvement in IL-11R binding over WT IL-11 [2] [fold] | Kd [3] [nM] |
| --- | --- | --- | --- | --- | --- | --- | --- | --- |
| yeast-displayed wild-type human IL-11, P20809 D19G; T21I; L57P; G62R (protein) PGPPPGPPRVSPDPRAELGSIVLLTRSLLADTRQLAAQLRDKFPADGDHNLDSLPTPAMSARALGALQLPGVLTRLRADLLSYLRHVQWLRRAGGSSLKTLEPELGTLQARLDRLLRRLQLLMSRLALPQPPPDPPAPPLAPPSSAWGGIRAAHAILGGLHLTLDWAVRGLLLLKTRL | 28000 | 35000 | 40000 | – | – | – | – | – |
| soluble human IL-11 receptor extracellular domain, his-tagged (receptor) SPCPQAWGPPGVQYGQPGRSVKLCCPGVTAGDPVSWFRDGEPKLLQGPDSGLGHELVLAQADSTDEGTYICQTLDGALGGTVTLQLGYPPARPVVSCQAADYENFSCTWSPSQISGLPTRYLTSYRKKTVLGADSQRRSPSTGPWPCPQDPLGAARCVVHGAEFWSQYRINVTEVNPLGASTRLLDVSLQSILRPDPPQGLRVESVPGYPRRLRASWTYPASWPCQPHFLLKFRLQYRPAQHPAWSTVEPAGLEEVITDAVAGLPHAVRVSARDFLDAGTWSTWSPEAWGTPSTGTIPKEIPAWGQLHTQPEVEPQVDSPAPPRPSLQPHPRLLDHRDSVEQVAVLA | – | – | – | 0.12 | 70 | 0.71 | 10 | – |
| soluble mouse IL-11 receptor (receptor) SPCPQAWGPPGVQYGQPGRPVMLCCPGVSAGTPVSWFRDGDSRLLQGPDSGLGHRLVLAQVDSPDEGTYVCQTLDGVSGGMVTLKLGFPPARPEVSCQAVDYENFSCTWSPGQVSGLPTRYLTSYRKKTLPGAESQRESPSTGPWPCPQDPLEASRCVVHGAEFWSEYRINVTEVNPLGASTCLLDVRLQSILRPDPPQGLRVESVPGYPRRLHASWTYPASWRRQPHFLLKFRLQYRPAQHPAWSTVEPIGLEEVITDAVAGLPHAVRVSARDFLDAGTWSAWSPEAWGTPSTGPLQDEIPDWSQGHGQQLEAVVAQEDSPAPARPSLQPDPRPLDHRDPLEQVAVLA | – | – | – | 1.5 | – | – | – | 0.29 |
